In patent US20230125550A1 (ARCELLX, published 2023):
Numbering of substitutions follows the chain as printed.

T1: recombinant human CD123-Fc (human, UniProt P26951 19-305)
T1 construct: not shown: Fc part of CD123-Fc
T1 sequence: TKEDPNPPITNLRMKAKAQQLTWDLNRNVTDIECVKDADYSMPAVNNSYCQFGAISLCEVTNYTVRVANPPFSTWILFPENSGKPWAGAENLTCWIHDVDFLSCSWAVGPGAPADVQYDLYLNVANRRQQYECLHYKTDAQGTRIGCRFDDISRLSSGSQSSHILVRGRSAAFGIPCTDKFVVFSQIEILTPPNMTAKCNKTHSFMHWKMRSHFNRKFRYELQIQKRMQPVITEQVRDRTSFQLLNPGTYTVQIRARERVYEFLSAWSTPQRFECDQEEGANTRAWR

B1: SEQ ID NO: 334 (designed binder)
chain: MGSWDEFAWRLDVIFARLGALGGSEAELAAFEKEIAAFESELQAYKGKGNPEVEELRKNAAQIRDGLQAYRHN
notes: D domain, on phage
B2: SEQ ID NO: 333 (designed binder)
chain: MGSWEEFAQRLYAIEWRLYALGGSEAELAAFEKEIAAFESELQAYKGKGNPEVEVLRYVAAQIRYHLQAYRHN
notes: D domain, on phage
B3: SEQ ID NO: 352 (designed binder)
chain: B2 chain with E5D, A8G, Q9R, V55K, Y58E, V59I, Q62V, Y65S, H66N
notes: D domain, on phage
B4: SEQ ID NO: 393 (designed binder)
chain: MGSWWEFEERLWAIDYRLHALGGSEAELAAFEKEIAAFESELQAYKGKGNPEVEMLRSWAAEIRALLQAYRHN
notes: D domain, on phage
B5: SEQ ID NO: 375 (designed binder)
chain: MGSWYEFSNRLDAIGERLWALGGSEAELAAFEKEIAAFESELQAYKGKGNPEVEILRHQAAEIRWFLQAYRHN
notes: D domain, on phage
B6: SEQ ID NO: 361 (designed binder)
chain: MGSWDEFEQRLIAIEERLFALGGSEAELAAFEKEIAAFESELQAYKGKGNPEVEWLREEAAVIRKYLQAYRHN
notes: D domain, on phage
B7: SEQ ID NO: 398 (designed binder)
chain: B6 chain with D5S, Q9H, I12E, E16S, W55D, E58S, V62W, K65E, Y66Q
notes: D domain, on phage
B8: SEQ ID NO: 377 (designed binder)
chain: MGSWVEFWDRLWAIDYRLFALGGSEAELAAFEKEIAAFESELQAYKGKGNPEVEALRDEAAWIREELQAYRHN
notes: D domain, on phage
B9: SEQ ID NO: 391 (designed binder)
chain: B8 chain with V5S, W8E, Y16Q, A55W, D58A, E59Y, W62D, E65W
notes: D domain, on phage
B10: SEQ ID NO: 384 (designed binder)
chain: B8 chain with V5D, W8E, D9E, W12F, Y16E, F19W, D58Y, E59L, W62D
notes: D domain, on phage
B11: SEQ ID NO: 392 (designed binder)
chain: B8 chain with V5T, D9E, W12N, Y16E, A55W, D58L, E59Y, W62E, E65S
notes: D domain, on phage
B12: SEQ ID NO: 394 (designed binder)
chain: B4 chain with E9N, D15E, Y16E, H19E, S58N, W59Y, A65W, L66E
notes: D domain, on phage
B13: SEQ ID NO: 395 (designed binder)
chain: B4 chain with W5V, Y16E, H19G, M55W, S58D, E62D, A65W, L66W
notes: D domain, on phage
B14: SEQ ID NO: 390 (designed binder)
chain: B8 chain with V5S, W8Y, D15E, Y16E, A55Y, D58Y, E59Y, W62E
notes: D domain, on phage
B15: SEQ ID NO: 378 (designed binder)
chain: B8 chain with W8V, Y16E, F19D, A55F, D58T, E59W, E66D
notes: D domain, on phage
B16: SEQ ID NO: 396 (designed binder)
chain: B6 chain with D5V, Q9E, I12E, E58D, E59D, V62N, K65H, Y66W
notes: D domain, on phage
B17: SEQ ID NO: 385 (designed binder)
chain: MGSWEEFWERLDAIDTRLWALGGSEAELAAFEKEIAAFESELQAYKGKGNPEVEVLRNDAADIREPLQAYRHN
notes: D domain, on phage
B18: SEQ ID NO: 388 (designed binder)
chain: B17 chain with E5T, W8Y, E9N, T16Q, V55M, N58E, D59Y, E65T, P66D
notes: D domain, on phage
B19: SEQ ID NO: 386 (designed binder)
chain: B17 chain with E5M, D12E, T16M, V55Y, N58D, D62V, E65D, P66D
notes: D domain, on phage
B20: SEQ ID NO: 374 (designed binder)
chain: MGSWEEFFTRLDAINERLEALGGSEAELAAFEKEIAAFESELQAYKGKGNPEVEMLRYEAAEIRHMLQAYRHN
notes: D domain, on phage
B21: SEQ ID NO: 373 (designed binder)
chain: MGSWFEFNYRLGAIEDRLWALGGSEAELAAFEKEIAAFESELQAYKGKGNPEVEMLRQIAAEIREFLQAYRHN
notes: D domain, on phage
B22: SEQ ID NO: 387 (designed binder)
chain: MGSWLEFMWRLDAIDERLWALGGSEAELAAFEKEIAAFESELQAYKGKGNPEVELLREMAAAIRDDLQAYRHN
notes: D domain, on phage
B23: SEQ ID NO: 362 (designed binder)
chain: MGSWVEFDQRLGAIWDRLVALGGSEAELAAFEKEIAAFESELQAYKGKGNPEVEHLRQGAAVIRDDLQAYRHN
notes: D domain, on phage
B24: SEQ ID NO: 365 (designed binder)
chain: MGSWHEFDQRLWAIEERLWALGGSEAELAAFEKEIAAFESELQAYKGKGNPEVETLRLYAALIRHDLQAYRHN
notes: D domain, on phage
B25: SEQ ID NO: 425 (designed binder)
chain: MGSWYEFSMRLDAIYDRLMALGGSEAELAAFEKEIAAFESELQAYKGKGNPEVEQLRGYAANIRNELQAYRHN
notes: D domain, on phage
B26: SEQ ID NO: 427 (designed binder)
chain: B25 chain with Y5I, S8E, M9V, D16N, M19A, Q55R, G58R, N65H
notes: D domain, on phage
B27: SEQ ID NO: 428 (designed binder)
chain: B25 chain with Y5F, S8Y, M9D, D16M, M19I, Q55V, G58R, N65A
notes: D domain, on phage
B28: SEQ ID NO: 430 (designed binder)
chain: B25 chain with S8D, M9Y, M19A, Q55R, G58K, Y59W, N65E
notes: D domain, on phage
B29: SEQ ID NO: 429 (designed binder)
chain: B25 chain with Y5F, S8Y, M19T, Q55R, G58T, Y59F, N65K
notes: D domain, on phage
B30: SEQ ID NO: 426 (designed binder)
chain: B25 chain with Y5V, S8I, M9Y, M19E, Q55V, G58R
notes: D domain, on phage
B31: SEQ ID NO: 431 (designed binder)
chain: B25 chain with Y5S, S8Y, M9L, M19D, Q55W, G58K, Y59T, N65E
notes: D domain, on phage
B32: SEQ ID NO: 366 (designed binder)
chain: MGSWVEFWDRLDAIEGRLWALGGSEAELAAFEKEIAAFESELQAYKGKGNPEVEDLRWLAAEIRADLQAYRHN
notes: D domain, on phage
B33: SEQ ID NO: 399 (designed binder)
chain: B17 chain with E5F, D15E, T16W, V55E, N58S, D59T, E65R, P66Y
notes: D domain, on phage
B34: SEQ ID NO: 376 (designed binder)
chain: B32 chain with V5Y, D9G, G16E, K48R, D55M, W58E, L59D, A65G, D66Q
notes: D domain, on phage
B35: SEQ ID NO: 327 (designed binder)
chain: MGSWTEFVWRLEAIWDRLDALGGSEAELAAFEKEIAAFESELQAYKGKGNPEVEVLREDAAVIRHFLQAYRHN
notes: D domain, on phage
B36: SEQ ID NO: 389 (designed binder)
chain: MGSWWEFIWRLEAIEQRLWALGGSEAELAAFEKEIAAFESELQAYKGKGNPEVEVLRSRAADIRTDLQAYRHN
notes: D domain, on phage
B37: SEQ ID NO: 335 (designed binder)
chain: MGSWDEFYYRLEAIEMRLGALGGSEAELAAFEKEIAAFESELQAYKGKGNPEVEELRHYAAQIRHMLQAYRHN
notes: D domain, on phage
B38: SEQ ID NO: 336 (designed binder)
chain: B37 chain with D5E, Y9D, E15Y, M16N, E55V, H58E, Q62D, H65E
notes: D domain, on phage

What follows are binders tested against T1, recombinant human CD123-Fc (assay: phage ELISA, captured CD123-Fc).
Experimental: Individual colonies containing phagemid from BCMA panning output were picked and phage were rescued in 96-well format using VCSM13 helper phage following standard protocols. To assay target binding by ELISA, 96-well plates were coated with 1.3 microg/ml goat anti-human IgG1-Fc antibody followed by incubation with 5 nM of recombinant human target (BCMA-Fc, CD123-Fc, AFP, or AFP123) or IgG1-Fc. 50 microl of rescued phage diluted 5× in ELISA blocking buffer was then added to each well. Binding was detected using an HRP-conjugated anti-M13 antibody and the ELISA ratio for each sequence is reported as the absorbance at 450 nm for target (i.e., BCMA-Fc, CD123-Fc, AFP, or AFP123) divided by that for IgG1-Fc averaged across all screened wells containing that clone.

Binder | ELISA_avg [ratio A450 target/IgG1-Fc]
B1 | 4.6
B2 | 16.9
B3 | 5.8
B4 | 4.1
B5 | 3.9
B6 | 5.9
B7 | 7.6
B8 | 3.6
B9 | 4.2
B10 | 5
B11 | 4
B12 | 5.6
B13 | 4.1
B14 | 17
B15 | 3.2
B16 | 3.8
B17 | 6.8
B18 | 3.3
B19 | 4.2

Binder | ELISA_avg [ratio A450 target/IgG1-Fc]
B20 | 3.9
B21 | 6.9
B22 | 5.1
B23 | 5.3
B24 | 3.3
B25 | 13
B26 | 20.8
B27 | 13.6
B28 | 24.9
B29 | 13.1
B30 | 17
B31 | 15.7
B32 | 3.5
B33 | 3.4
B34 | 5.4
B35 | 3.6
B36 | 4
B37 | 7.2
B38 | 18.6
